The results in this text go back to publication PMC5563082, “Structural Mechanism for Modulation of Synaptic Neuroligin-Neurexin Signaling by MDGA Proteins” (Neuron, 2017).

In test [1] the target is T1, human MDGA1 extracellular domain (MDGA1_(ECTO); Gln19-Lys925) (human, UniProt Q8NFP4-1 19-925).
T1 construct: human MAM domain-containing glycosylphosphatidylinositol anchor protein 1, Gln19-Lys925; Not deglycosylated; also called human MDGA1_(ECTO); source: HEK293T, transient transfection, purified (IMAC, SEC)
T1 sequence (looked up): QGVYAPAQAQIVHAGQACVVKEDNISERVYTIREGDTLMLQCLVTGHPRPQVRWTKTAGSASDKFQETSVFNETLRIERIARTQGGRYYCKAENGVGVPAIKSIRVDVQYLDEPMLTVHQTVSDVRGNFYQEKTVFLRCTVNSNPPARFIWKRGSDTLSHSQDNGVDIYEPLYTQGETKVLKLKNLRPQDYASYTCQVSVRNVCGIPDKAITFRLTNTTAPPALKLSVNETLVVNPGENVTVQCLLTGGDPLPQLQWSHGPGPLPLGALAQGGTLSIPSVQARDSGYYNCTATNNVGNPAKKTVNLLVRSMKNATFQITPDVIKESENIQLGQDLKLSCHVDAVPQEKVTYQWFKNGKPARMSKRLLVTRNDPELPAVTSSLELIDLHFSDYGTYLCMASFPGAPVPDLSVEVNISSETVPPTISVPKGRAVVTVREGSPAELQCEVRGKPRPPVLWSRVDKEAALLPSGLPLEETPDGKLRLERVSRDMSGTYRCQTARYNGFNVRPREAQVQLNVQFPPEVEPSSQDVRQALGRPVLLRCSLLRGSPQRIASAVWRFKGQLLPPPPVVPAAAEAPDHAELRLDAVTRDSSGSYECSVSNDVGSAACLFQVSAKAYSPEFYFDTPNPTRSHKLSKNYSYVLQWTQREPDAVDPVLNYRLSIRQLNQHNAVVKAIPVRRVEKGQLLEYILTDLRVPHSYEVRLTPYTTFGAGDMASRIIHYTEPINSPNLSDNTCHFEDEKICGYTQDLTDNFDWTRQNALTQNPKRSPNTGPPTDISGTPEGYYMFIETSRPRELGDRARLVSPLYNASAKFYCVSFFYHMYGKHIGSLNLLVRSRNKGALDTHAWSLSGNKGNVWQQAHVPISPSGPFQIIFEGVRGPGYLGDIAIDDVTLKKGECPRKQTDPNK
In words: SPR; biotinylated NL_(ECTO)-Avitag variants captured from dialysed conditioned medium on streptavidin CM5 chip (500 RU; 550 RU for the ΔSite series; 1000 RU for NL3 and NL3 Arg451Cys in the R451C series); β-NRX1_(LNS6)(±4), MDGA1_(ECTO), MDGA2_(ECTO) injected, 15 concentrations, two-fold series from 50 μM; TBS-CTB (10 mM Tris pH 7.4, 150 mM NaCl, 3 mM CaCl2, 0.005% Tween-20, 1.0 g/L BSA); equilibrium analysis, 1:1 …. Particulars: both partners purified. (In general: In SPR one partner is held on a chip, and binding of the other changes the refractive index at the surface.)

Test [2] has as its target T2, human MDGA2 extracellular domain (MDGA2_(ECTO); Gln21-Lys927) (human, UniProt Q7Z553 21-927).
T2 construct: human MAM domain-containing glycosylphosphatidylinositol anchor protein 2, Gln21-Lys927; Not deglycosylated; source: HEK293T, transient transfection, purified (IMAC, SEC)
T2 sequence (looked up): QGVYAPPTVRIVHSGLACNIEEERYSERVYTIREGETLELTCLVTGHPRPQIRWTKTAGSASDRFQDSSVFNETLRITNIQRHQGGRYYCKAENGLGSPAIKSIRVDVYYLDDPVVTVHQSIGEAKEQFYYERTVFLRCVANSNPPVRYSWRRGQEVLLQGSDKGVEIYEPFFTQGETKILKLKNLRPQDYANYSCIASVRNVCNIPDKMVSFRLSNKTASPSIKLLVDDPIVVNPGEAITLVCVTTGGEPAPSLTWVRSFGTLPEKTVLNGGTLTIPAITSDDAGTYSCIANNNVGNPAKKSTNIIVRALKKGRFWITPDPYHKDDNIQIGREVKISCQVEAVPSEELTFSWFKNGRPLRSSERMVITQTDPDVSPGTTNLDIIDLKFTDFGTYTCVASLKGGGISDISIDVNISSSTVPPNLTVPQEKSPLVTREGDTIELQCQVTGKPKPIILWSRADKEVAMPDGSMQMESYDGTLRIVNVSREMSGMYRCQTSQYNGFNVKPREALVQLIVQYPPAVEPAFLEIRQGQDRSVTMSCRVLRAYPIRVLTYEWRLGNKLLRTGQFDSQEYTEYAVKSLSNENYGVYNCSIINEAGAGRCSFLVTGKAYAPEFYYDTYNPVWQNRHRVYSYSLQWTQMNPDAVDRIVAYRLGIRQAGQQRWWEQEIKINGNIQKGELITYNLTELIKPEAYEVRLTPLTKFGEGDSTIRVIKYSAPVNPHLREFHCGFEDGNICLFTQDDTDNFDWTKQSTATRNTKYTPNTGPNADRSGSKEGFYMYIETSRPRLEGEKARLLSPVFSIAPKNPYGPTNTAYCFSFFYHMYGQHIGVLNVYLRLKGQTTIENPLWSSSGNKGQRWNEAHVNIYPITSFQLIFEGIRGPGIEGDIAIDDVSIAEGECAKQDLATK
The test is described as above. Particulars: both partners purified.

B1: human NL3(+A2)_(ECTO), immobilised for SPR (domain or fragment, UniProt Q9NZ94-1 38-636, looked up)
chain: QAPAPTVNTHFGKLRGARVPLPSEILGPVDQYLGVPYAAPPIGEKRFLPPEPPPSWSGIRNATHFPPVCPQNIHTAVPEVMLPVWFTANLDIVATYIQEPNEDCLYLNVYVPTEDGSGAKKQGEDLADNDGDEDEDIRDSGAKPVMVYIHGGSYMEGTGNMIDGSILASYGNVIVITLNYRVGVLGFLSTGDQAAKGNYGLLDQIQALRWVSENIAFFGGDPRRITVFGSGIGASCVSLLTLSHHSEGLFQRAIIQSGSALSSWAVNYQPVKYTSLLADKVGCNVLDTVDMVDCLRQKSAKELVEQDIQPARYHVAFGPVIDGDVIPDDPEILMEQGEFLNYDIMLGVNQGEGLKFVEGVVDPEDGVSGTDFDYSVSNFVDNLYGYPEGKDTLRETIKFMYTDWADRDNPETRRKTLVALFTDHQWVEPSVVTADLHARYGSPTYFYAFYHHCQSLMKPAWSDAAHGDEVPYVFGVPMVGPTDLFPCNFSKNDVMLSAVVMTYWTNFAKTGDPNKPVPQDTKFIHTKANRFEEVAWSKYNPRDQLYLHIGLKPRVRDHYRATKVAFWKHLVPHLYNLHD
modifications: biotin on the Avitag (in vivo biotinylation by BirA)
notes: source: HEK293T, co-transfected with ER-resident BirA; dialysed conditioned medium, captured on streptavidin chip
Turning to B1, the binding result in test [1] and in test [2] was “binds” in each case.

B2: human NL3(+A1+A2)_(ECTO), immobilised for SPR (domain or fragment, UniProt Q9NZ94-1 38-636, looked up)
chain: QAPAPTVNTHFGKLRGARVPLPSEILGPVDQYLGVPYAAPPIGEKRFLPPEPPPSWSGIRNATHFPPVCPQNIHTAVPEVMLPVWFTANLDIVATYIQEPNEDCLYLNVYVPTEDVKRISKECARKPNKKICRKGGSGAKKQGEDLADNDGDEDEDIRDSGAKPVMVYIHGGSYMEGTGNMIDGSILASYGNVIVITLNYRVGVLGFLSTGDQAAKGNYGLLDQIQALRWVSENIAFFGGDPRRITVFGSGIGASCVSLLTLSHHSEGLFQRAIIQSGSALSSWAVNYQPVKYTSLLADKVGCNVLDTVDMVDCLRQKSAKELVEQDIQPARYHVAFGPVIDGDVIPDDPEILMEQGEFLNYDIMLGVNQGEGLKFVEGVVDPEDGVSGTDFDYSVSNFVDNLYGYPEGKDTLRETIKFMYTDWADRDNPETRRKTLVALFTDHQWVEPSVVTADLHARYGSPTYFYAFYHHCQSLMKPAWSDAAHGDEVPYVFGVPMVGPTDLFPCNFSKNDVMLSAVVMTYWTNFAKTGDPNKPVPQDTKFIHTKANRFEEVAWSKYNPRDQLYLHIGLKPRVRDHYRATKVAFWKHLVPHLYNLHD
modifications: biotin on the Avitag (in vivo biotinylation by BirA)
notes: as for B1
Consider B2, for which the binding result in test [1] and in test [2] was “binds” in each case.
